In patent US10920201B2, “Rice EPSPS mutant, encoding gene and use thereof” (GEVOTO LLC, priority 2016, dated 2021):

How the values were obtained:
[1] = tested on: EPSPS and C-P Lyase deficient E. coli; assay: Growth of transformed E. coli on solid culture media containing glyphosate (FIG. 4); type: cell-based; details: solid culture medium
Method: Besides, the glyphosate-resistant CP4-EPSPS gene mostly widely used currently in genetically modified crops in agriculture was further used in the present example as positive control, and E. coli respectively transformed by OsE gene (negative control group), OsEM gene (experiment group) and CP4-EPSPS gene (positive control group) were inoculated onto solid culture media respectively containing glyphosate of concentration of 0 mM, 1 mM, 50 mM, 100 mM, to observe growth states of bacterial colony in each group.

[2] = tested on: EDCE (E. coli DH5a with EPSPS gene and C-P Lyase gene being knocked out); assay: Glyphosate resistance of transformed E. coli in liquid screening culture media (growth saturation index); type: cell-based; set-up: key to Growth Saturation Index: saturation index=0, no growth; saturation index=1, little growth; saturation index=2, half-saturated growth; saturation index=3, flourishing growth, but still having room to grow; saturation index=4, rapid growth, the bacteria having reached a highest (saturated) concentration in the culture media or the growth having reached the limit
Source text: 1.6 A double knockout E. coli was transformed (E. Coli DH5a with EPSPS gene and C-P Lyase gene being knocked out, named as EDCE, wherein for a preparation method thereof, reference can be made to a Chinese invention patent with the filing number CN2016103256926, entitled “Method for Screening Glyphosate-resistant Gene, EPSPS Mutant Gene, Defect Strain and Application Thereof”).
In the above, the screening culture media were culture media obtained by adding antibiotic, Spec (Spectinomycin), Gen (Gentamycin), Amp (Ampicillin) of certain concentrations and glyphosate of different concentrations, with M9 as a basic medium. Basic components of the M9 culture medium were as follows: Na2HPO4 13˜14 g/L, KH2PO4 5.7˜6.3 g/L, NaCl 0.9˜1.1 g/L, NH4Cl 1.8˜2.2 g/L, glucose 37˜43 g/L, MgSO4˜7H2O 48˜52 g/L, and CaCl2) 21˜23 g/L.
In the present example, EDCE transformed by the wild-type rice EPSPS gene (named as OsE gene, SEQ ID NO. 3) was taken as a control group, and the monoclonal resistant bacterium containing the OsEM gene (SEQ ID NO. 2) obtained in step 3.1 of Example 1 was taken as an experiment group, to detect the glyphosate resistance of the OsEM gene in bacteria.
The control group and the experiment group were respectively inoculated into culture media (screening culture media) containing glyphosate concentrations of 0 mM, 5 mM, 10 mM, 20 mM, 50 mM, 75 mM, and 100 mM, to observe growth states of bacterial colony in each group, denoted by growth saturation index (saturation index=0, no growth; saturation index=1, little growth; saturation index=2, half-saturated growth; saturation index=3, flourishing growth, but still having room to grow; saturation index=4, rapid growth, the bacteria having reached a highest (saturated) concentration in the culture media or the growth having reached the limit).

soybean plants = assay: Glyphosate spray test on soybean plants transformed with OsEM gene; type: in vivo
Source text: In the present example, wild-type soybean plants were taken as controls, the positive soybean plants transformed with OsEM gene obtained in Example 4 were taken as experiment group, to verify glyphosate resistance of OsEM gene in plants. An experiment method is as follows:
1 The OsEM transformed positive soybean plants 10-20 cm tall and 3 wild-type soybean plants with a similar size were numbered and then randomly arranged in an experiment area (preventing leaves from overlapping).
2 The area with the plants was measured, and glyphosate was sprayed at a dosage of 1060 g/hectare (0.106 g/m^2).
3 Commercially available Roundup® 41% ammonium glyphosate was used. Amount was calculated according to the experiment area and dosage of 0.106 g/m^2, then diluted 20 times with water, and uniformly sprayed on the plants in the experiment area.
4 After leaf surfaces were dry, the plants in the experiment group and the control group were moved into a greenhouse.
5 Growth states of the plants were evaluated and recorded.
Afterwards, plants grew well were transplanted to larger pots to grow, and the glyphosate (having a concentration of […]) was sprayed for a second time on a 21st day. After 2 weeks, the growth states of the plants in each group were captured and recorded.

[3] = 7th day after first glyphosate spray, 1060 g/hectare (0.106 g/m^2)

B1: OsEM: Rice EPSPS mutant gene (SEQ ID NO. 2) encoding 5-enolpyruvylshikimate-3-phosphate synthase mutant (SEQ ID NO. 1), 8 amino acid mutations (protein)
chain: MASNAAAAAAKAEEIVLQPIREISGAVQLPGSKSLSNRILLLSALSEGTTVVDNLLNSEDVHYMLEALKGLGLSVEADKVAKRAVVVGCGGKFPVEKDAKEEVQLFLGNAATAMRSLTAAVTAAGGNATYVLDGVPRMRERPIGDLVVGLKRLGADVDCFLGTECPPVRVKGIGGLPGGKVKLSGSISSQYLSALLMAAPLALGDVEIEIIDRLISIPYVEMTLRLMERFGVKAEHSDSWDRFYIKGGQQYESPGNAYVEGDASSASYFLAGAAITGGTVTVQGCGTTSLQGDVKFAEVLEMMGAKVTWTDTSVTVTGPPREPYGKKHLKAVDVNMNKMPDAAMTLAVVALFADGPTAIRDVASWRVKETERMVAIRTELTKLGASVEEGPDYCIITPPEKLNITAIDTYDDHRMAMAFSLAACADVPVTIRDPGCTRKTFPNYFDVLSTFVRN
B1 was tested, and the “growth state of bacterial colony” value ([1]; 0 mM glyphosate) was “could grow normally”, the “growth state of bacterial colony” value ([1]; 1 mM glyphosate) was “could grow normally” and the “growth state of bacterial colony” value ([1]; 50 mM glyphosate) was “could grow normally”. The “growth state of bacterial colony” value ([1]; 100 mM glyphosate) was “could grow normally”, the “Growth Saturation Index” value ([2]; 0 mM glyphosate in culture medium) was 4 and the “Growth Saturation Index” value ([2]; 5 mM glyphosate in culture medium) was 4. For the same molecule, the “Growth Saturation Index” value ([2]; 10 mM glyphosate in culture medium) was 4, the “Growth Saturation Index” value ([2]; 20 mM glyphosate in culture medium) was 4 and the “Growth Saturation Index” value ([2]; 50 mM glyphosate in culture medium) was 4. For the same molecule, the “Growth Saturation Index” value ([2]; 75 mM glyphosate in culture medium) was 4, the “Growth Saturation Index” value ([2]; 100 mM glyphosate in culture medium) was 4 and the “glyphosate concentration to which resistance is endowed” value ([2]; E. coli transformed by the gene) was 100 mM. For the same molecule, the “growth state of plants after second glyphosate spray (FIG. 7)” value (soybean plants; 1.06 g/m^2 glyphosate sprayed on 21st day, recorded after 2 weeks) was “could grow continuously”, the “number of plants with Growth State + (low glyphosate resistance)” value (soybean plants; [3]) was 3 and the “number of plants with Growth State ++ (medium glyphosate resistance)” value (soybean plants; [3]) was 1. The “number of plants with Growth State +++ (high glyphosate resistance)” value (soybean plants; [3]) was 4, the “number of plants with Growth State − (no glyphosate resistance)” value (soybean plants; [3]) was 2 and the “glyphosate concentration to which resistance is endowed” value (soybean plants; soybean plants transformed by the gene) was 1.06 g/m^2.
